Experimental data reported in patent US20120237948.

Biological target: MMP13-undigested human type II collagen (UniProt P02458)
Sequence (P02458 182-1241): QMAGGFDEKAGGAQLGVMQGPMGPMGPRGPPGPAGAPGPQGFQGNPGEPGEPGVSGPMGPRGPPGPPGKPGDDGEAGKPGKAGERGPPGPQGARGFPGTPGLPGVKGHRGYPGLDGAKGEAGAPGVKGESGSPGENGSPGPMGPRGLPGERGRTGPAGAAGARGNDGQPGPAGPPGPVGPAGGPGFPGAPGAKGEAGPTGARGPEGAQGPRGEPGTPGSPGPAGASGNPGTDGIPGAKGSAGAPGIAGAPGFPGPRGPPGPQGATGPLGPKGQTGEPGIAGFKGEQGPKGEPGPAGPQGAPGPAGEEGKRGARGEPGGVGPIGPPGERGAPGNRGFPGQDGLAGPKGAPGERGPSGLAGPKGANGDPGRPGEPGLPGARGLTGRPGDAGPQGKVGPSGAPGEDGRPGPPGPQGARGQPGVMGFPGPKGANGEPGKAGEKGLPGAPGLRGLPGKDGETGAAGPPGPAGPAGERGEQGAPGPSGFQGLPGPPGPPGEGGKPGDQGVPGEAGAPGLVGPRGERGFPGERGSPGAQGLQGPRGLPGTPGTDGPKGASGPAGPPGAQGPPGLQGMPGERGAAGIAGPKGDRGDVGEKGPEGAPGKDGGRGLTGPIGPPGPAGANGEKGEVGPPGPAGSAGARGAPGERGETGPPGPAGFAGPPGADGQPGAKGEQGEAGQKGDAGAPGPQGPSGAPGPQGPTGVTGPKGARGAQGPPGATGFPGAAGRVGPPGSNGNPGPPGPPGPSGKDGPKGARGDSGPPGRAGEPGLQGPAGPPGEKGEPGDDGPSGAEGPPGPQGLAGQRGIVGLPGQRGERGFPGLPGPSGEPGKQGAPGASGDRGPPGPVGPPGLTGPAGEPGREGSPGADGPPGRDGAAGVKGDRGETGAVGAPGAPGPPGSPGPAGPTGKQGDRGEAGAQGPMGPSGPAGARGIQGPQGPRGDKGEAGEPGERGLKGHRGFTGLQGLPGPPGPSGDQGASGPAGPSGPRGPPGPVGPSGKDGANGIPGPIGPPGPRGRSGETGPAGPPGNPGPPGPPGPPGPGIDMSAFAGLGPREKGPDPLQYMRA

activated human MMP13
amount of the collagen neoepitope in the enzyme-reaction buffer (sandwich ELISA of Example 4): the measurements of the neoepitope increased in a manner dependent on the dose of MMP13 added
